Data as given in the DeepSol protein solubility set.

Assay: soluble on expression in E. coli; label from the status in PepcDB or PDB records
For “MAHHHHHHMPIKNVQEFLPNVRPDAFPVVVAVQAQASIPVGINLAELSCATRNVEYMPNNRIPSATMRLHEPTAVVMMHNSGALSIIGAASVSEARQAAELAARIIRKALNLNFSSLKFRVRSIAARFNVCSPIRLDKLAAYQLDPAMSIGVAKLQVSYEPERFNGCVLRLVGKSSRGDNQWSVSCSVFVTGKVQLMGARSMDELRFAFNAFVPIIAKNLDERKTA”, the “soluble on expression in E. coli” value was “not soluble”.
With “SLLEECDFPTVKDIENEFEQLKEKNVRAVARLITMAEEQAKTKEAAVTLDDKLVSLKKLNQPSPPVLGITGTGGAGKSSLTDELVRRFLNEFTDKTVAILSIDPTKQKTGGALLGDRIRMNAIHSPRVFMRSLATRGSRTEISESIRDAIAVVKAAAYDLVIVETSGIGQGDAEITEIADISMYVMTSEYGAPSQLEKIDMIDFADVIAINKFDRKGSEDALRHVRKQYQRSHQRFDEPLEAMPVYGTIASQFNDIGTNTLFAAVIDILNKKCKTSWDTSIETSKEVMKQNIIIPPERTQYLRDIVQTVKQYK” the “soluble on expression in E. coli” value was “soluble”.
In the case of “MGSSHHHHHHSSGLVPRGSKTFIIGISGVTNSGKTTLAKNLQKHLPNCSVISQDDFFKPESEIETDKNGFLQYDVLEALNMEKMMSAISCWMESARHSVVSTDQESAEEIPILIIEGFLLFNYKPLDTIWNRSYFLTIPYEECKRRRSTRVYQPPDSPGYFDGHVWPMYLKYRQEMQDITWEVVYLDGTKSEEDLFLQVYEDLIQEL”, the “soluble on expression in E. coli” value is reported as “soluble”.
In the case of “TSKKKRQRGSRTHGGGSHKNRRGAGHRGGRGDAGRDKHEFHNHEPLGKSGFKRPQKVQEEAATIDVREIDENVTLLAADDVAEVEDGGFRVDVRDVVEEADDADYVKVLGAGQVRHELTLIADDFSEGAREKVEGAGGSVELTDLGEERQAEAEETEDADADEE”, the “soluble on expression in E. coli” value is reported as “soluble”.
With “MTGTSNIPTHGKEHKDAPALLPLPAPNPHHTHAAHPGNPSHDRPPSRGKLFIKTHGCQMNEYDSAKMADVLTTTEALELTDNPEEADIILINTCSIREKAQEKVFSQLGRWRALKTSGRDVIIGVGGCVASQEGEAIVKRAPYVDLVFGPQTLHRLPDMIRARREQNRPQVDIRFPEIEKFDHLPTPRAEGPSAFVSIMEGCSKYCSFCVVPYTRGEEVSRPFEDVLTEIAHLATQGVREINLLGQNVNAYRGAMDPGPSNNTNPAPPPYADLGLLIRAIAQFESIGRIRFTTSHPLEFSDSLVEAYRDVPQLANHLHLPVQSGSDRILSAMKRGYTALEFKSKIRKLRAVRPDISISSDFIIGFPGESDTDFQKTMQLIEDIGFDQSFSFIYSRRPGTPASNLEDHTPDEIKRTRLEHLQKHINTYAADISKRMIGTVQTVLVEGPSKKNPNELTGKTENMRPVNFPGHPRLIGQFIDVHITEALSNSLRGRVHTNLEHHHHHH” the “soluble on expression in E. coli” value was “soluble”.
With “MLILGHPLIPSARFVFIKNTDAIHSNTNNDIVCFEAHPKNLELAKYCCENSVHFSVIFLSHKIETDTFFLFNAFKPLYCIFKDIKQAILAQQHATNYLLDSKILFFMDLNDTELWEICAKSQIDGVISKDSLLLK” the “soluble on expression in E. coli” value was “soluble”.
With “MGLEDDFLLEDADDEKTVEFIKNYLPQELKEKFEDDELYYFLDLIDEYYSESGILDAQPDNDGYVNIDLEEVVAYIVKEAKKDEMGEYDPEEILFVVQGEMEYGNSLGQVD” the “soluble on expression in E. coli” value was “not soluble”.
In the case of “MLVGLIGYGAIGKFLAEWLERNGFEIAAILDVRGEHEKMVRGIDEFLQREMDVAVEAASQQAVKDYAEKILKAGIDLIVLSTGAFADRDFLSRVREVCRKTGRRVYIASGAIGGLDAIFSASELIEEIVLTTRKNWRQFGRKGVIFEGSASEAAQKFPKNLNVAATLSIASGKDVKVRLVADEVEENIHEILVRGEFGEMEIRVRNRPMRENPKTSYLAALSVTRILRNLKEGLVV”, the “soluble on expression in E. coli” value is reported as “soluble”.
For “MPKGGPSGLSPVYAGIREDLDTLLRAYLQFKSVRFYDYKMMFERRGMVDIFNGRSESSEIIEFNEHLLVQCLSYMEEEACPGMPRSLKERLFGLYSLYTFFFIQQESHVVQIRMNPDCARNFRKFAQFLLVEKIYDAYVHDPCYAKSNQTDEKSHGVPVLANLNDPLCRVKALTEQFDMLGVIHREYSKLKDKFGITGNPLNDPTEILSRVIEKNLKAIEDSAIEKVFDVDQDEQSSVDALSSDGDDEETEKDPDIAENDDNVEETIEPSLPSRKRKRKRRQSKTVPISDPEVLDDLFAREILRDNQPTTSDDSAQRMNVDSKIVPGRKKSRKMSAKKAKINLPRIVKSEQIPPLRGIMKNEDLNNSESCIHENVDIVLTQSDSLKNEIKSEIVALNSSTKTSFKSSRRVSFREKENGELDNTIHEIPRRCHSSDESDEENSDEDPVAESSHRPHLTIQLKPIHEKYETSISMNLIYMKNKEKLISADDFNIFKPVEGAEETFETPFDSLIPEDIDSDDEI”, the “soluble on expression in E. coli” value was “not soluble”.
For “MGSDKIHHHHHHMDKFLYISMSGAKQNMNELALRANNLANANTDGFKSDMAQARSMQAFGEGLPTRVFAMVETPSANFRSGPIKSTGRDLDVAIKGDGWFAVQAQDGSEAYTRSGSLSFDSTGLLHNDRGNPVMGDAGPIVLPLPIEKVTISQDGIISVRPQGATTEVVEEVGRLKLVNPGNAQMMRGEDGLFRLVSGDPAPADPSVSVESGAVEGSNVNSVDEMVSLIDLQRQFELQVKMMKTAEENDRASSSLMRIS”, the “soluble on expression in E. coli” value was “not soluble”.
With “MGSDKIHHHHHHMKMDFKIRIAQQSDSAELRDLYKNTVLVVNRRDYSQDEVEDWASCGDDLSNIEEMIKTHYFIVAVNQLSQIVGFSSITPQGYLHSMFIHADFQGKGIATMLLEEIERYAITKGIIQITSEVSLTARPFFEKQKYVVKKEQKRQANKLNLTNFWMAKTLSVIKPYHGRIPACGVFCGGCPSYTRDEKICQGAEENKTRCEKCRTFYLCCVEKGITHCYQCHLFPCTKFKGFTKRWLKYGQDFIENQKFLKQVGEMEFLRFYNEKVTD” the “soluble on expression in E. coli” value was “not soluble”.
With “MRVLVTGGAGFIGSHIVEDLLARGLEVAVLDNLATGKRENVPKGVPFFRVDLRDKEGVERAFREFRPTHVSHQAAQASVKVSVEDPVLDFEVNLLGGLNLLEACRQYGVEKLVFASTGGAIYGEVPEGERAEETWPPRPKSPYAASKAAFEHYLSVYGQSYGLKWVSLRYGNVYGPRQDPHGEAGVVAIFAERVLKGLPVTLYARKTPGDEGCVRDYVYVGDVAEAHALALFSLEGIYNVGTGEGHTTREVLMAVAEAAGKAPEVQPAPPRPGDLERSVLSPLKLMAHGWRPKVGFQEGIRLTVDHFRGAV” the “soluble on expression in E. coli” value was “soluble”.
For “SGMEELEQGLLMQPWAWLQLAENSLLAKVFITKQGYALLVSDLQQVWHEQVDTSVVSQRAKELNKRLTAPPAAFLCHLDNLLRPLLKDAAHPSEATFSCDCVADALILRVRSELSGLPFYWNFHCMLASPSLVSQHLIRPLMGMSLALQCQVRELATLLHMKDLEIQDYQESGATLIRDRLKTEPFEENSFLEQFMIEKLPEACSIGDGKPFVMNLQDLYMAVTTQEVQVGQKHQ”, the “soluble on expression in E. coli” value was “soluble”.
With “MINIVIPMAGAGSRFAQAGYKKPKPFIDVLGRPMICHVLDNLNMPDARFILLTRKEHFENEQETVNWIKSKYNVEFVLIDNLTEGAACTVLHAHKLIDNNTPLLIANSDQIVDMNIAEFINDSENRNLDGSVLCFKDHDTKWSYAKIDGEGLITEIREKVVISEFATVGIYYFAKGGFFVKNAIDMIIRNERVKNEFYVAPVYNFGIQEGLKFGIFNININQMHGIGTPTDLNVYIDLVQRNKLEHHHHHH” the “soluble on expression in E. coli” value was “soluble”.
For “PDVRRDKPVTGEQIEVFANKLGEQWKILAPYLEMKDSEIRQIECDSEDMKMRAKQLLVAWQDQEGVHATPENLINALNKSGLSDLAESLTNDNETNS”, the “soluble on expression in E. coli” value was “soluble”.
For “MGSDKIHHHHHHMASIKAINNSAHGNVKVKSNPSFIQSKTKHFAPVVVQEFISASKEFPIVFIKDAETGRFNAVVLLGLKPQENLFFDEKSWQGSYIPEALTLYPFVIHQAEGSDKALLCVDEDSALVNETIGDAFFDEKGVQKEWLTAKGEAVVDYVNKSGVTQNFIQLLLAKELLAPQTLSLNLAGQEEYTLDGLYVINEQKLNDLSDSEFSELRKTNALPAIYAILMSMQCIKKLIDRQSSK”, the “soluble on expression in E. coli” value was “not soluble”.
In the case of “MTTASTSQVRQNYDQDSEAAINRQINLELYASYVYLSMSYYFDRDDVALKNFAKYFLHQSHEERCHAEKLMKLQNQRGGRIFLQDIQKPDRDDWESGLNAMEAALQLEKNVNQSLLELHKLATDKNDPHLSDFIETHYLNCQVCAIKCLGDHVTNLRKMGAPESGLAEYLFDKHTLGDSDNES”, the “soluble on expression in E. coli” value is reported as “soluble”.
With “MGSDKIHHHHHHMSYELARVPRGEHHFHSVRVRTGDVLGLIEKTAFFELDDTLFVYPFYQRFSYQVNERHQEDGVSGSSPIHQHHSSVAASVRNYQPGDRFAALDWKTSARRSQLMTKEFEPSRSKNLFLLMDRFSSDAFEEVVSVTASILHSVLKNGAGAGLASIGKEKNIFPIQEGDQHFKHMLRHLAIAHCDAADPISRYAREELGKPSVRQADQVVVTGQLTEDMLHLAEIGGGRVTVILAKEKDAELSQAENVMIERMMKRQIRVRIMRGGRVSRVV” the “soluble on expression in E. coli” value was “not soluble”.
With “MSLLFDSHLHLDQLSDENIQQTLAHSKIIGMLAVSTNLNSAKKLLNLKQTYPKKLYIAAGFHPEQQLPSLEEQKKLFQWIDEHHSSISAIGEVGLPHYSKRENPNLDYVPYIELLERFILIAKKWDLPLNLHIVHNDVEIALELLQKHNIQRAHFHWFKTDEKSFQKFFSTPYFASLTPDILWNSKTQYVAQHLSLNRLMIETDSPWQHEGFERAGISEQLLAVLQKLAELKSLPLHSVQKQILLNTQQFYQLEGHHHHHH” the “soluble on expression in E. coli” value was “soluble”.
With “MASKEAHVSLARGEQSVKRIKEFDPGKDSFSVLLLGIDAREKNGETVDQARSDANVLVTFNRKEKTAKMLSIPRDAYVNIPGHGYDKFTHAHAYGGVDLTVKTVEEMLDIPVDYVVESNFTAFEDVVNELNGVKVTVKSDKVIQQIKKDTKGKVVLQKGTHTLDGEEALAYVRTRKADSDLLRGQRQMEVLSAIIDKSKSLSSIPAYDDIVDTMGQNLKMNLSLKDAIGLFPFITSLKSVESIQLTGYDYEPAGVYYFKLNQQKLQEVKKELQNDLGVLEHHHHHH” the “soluble on expression in E. coli” value was “soluble”.
For “MIEIHKKFLEKDELFQFLKVAKYHHSPQNSFEVFTTLAYTGMRAGELLALKWSDIDFENNTISITKTYYNPNNNKKHYQILTRKTESSIGKITVDPHVIQLLKDYKVNVQDTWKNELYVDNNFVFTDVNGYPLVIKKLQLWIKAILKKTDITNKQISTHSFRYTHYALLIEAGVHIKEIQERLRHKDINTTMNIYAKITNSYKKDASQKFSKLEHHHHHH”, the “soluble on expression in E. coli” value was “not soluble”.
For “MDFPCLWLGLLLPLVAALDFNYHRQEGMEAFLKTVAQNYSSVTHLHSIGKSVKGRNLWVLVVGRFPKEHRIGIPEFKYVANMHGDETVGRELLLHLIDYLVTSDGKDPEITNLINSTRIHIMPSMNPDGFEAVKKPDCYYSIGRENYNQYDLNRNFPDAFEYNNVSRQPETVAVMKWLKTETFVLSANLHGGALVASYPFDNGVQATGALYSRSLTPDDDVFQYLAHTYASRNPNMKKGDECKNKMNFPNGVTNGYSWYPLQGGMQDYNYIWAQCFEITLELSCCKYPREEKLPSFWNNNKASLIEYIKQVHLGVKGQVFDQNGNPLPNVIVEVQDRKHICPYRTNKYGEYYLLLLPGSYIINVTVPGHDPHITKVIIPEKSQNFSALKKDILLPFQGQLDSIPVSNPSCPMIPLYRNLPDHSAATKPSLFLFLVSLLHIFFK”, the “soluble on expression in E. coli” value was “soluble”.
